{"source": "paper PMC4159076", "about": "(Cell reports, 2013)", "molecules": {"B1": {"name": "nucleophosmin (NPM) (endogenous, mouse cells) (natural protein, UniProt Q61937 1-292, looked up)", "chain": "MEDSMDMDMSPLRPQNYLFGCELKADKDYHFKVDNDENEHQLSLRTVSLGAGAKDELHIVEAEAMNYEGSPIKVTLATLKMSVQPTVSLGGFEITPPVVLRLKCGSGPVHISGQHLVAVEEDAESEDEDEEDVKLLGMSGKRSAPGGGNKVPQKKVKLDEDDEDDDEDDEDDEDDDDDDFDEEETEEKVPVKKSVRDTPAKNAQKSNQNGKDLKPSTPRSKGQESFKKQEKTPKTPKGPSSVEDIKAKMQASIEKGGSLPKVEAKFINYVKNCFRMTDQEAIQDLWQWRKSL"}}, "key": {"[1]": {"molecular_target": "endogenous NPM (human cells) (human (endogenous in HEK293)) (UniProt P06748)", "assay": "denaturing gel electrophoresis with western blot"}, "[2]": {"molecular_target": "NPM (Flag-NPM / GST-NPM constructs) (UniProt P06748)", "assay": "GST pull-down, anti-Flag western blot", "conditions": "reference: Flag-NPM wild type; sites S125"}, "[3]": {"molecular_target": "the molecule itself", "assay": "denaturing gel electrophoresis with western blot"}}, "data": [{"molecule": "endogenous NPM (human cells) (from UniProt P06748 1-294) (natural protein)", "values": [{"measurement": "stoichiometry N", "setting": "[1]", "result": 6}]}, {"molecule": "NPM (Flag-NPM / GST-NPM constructs) (from UniProt P06748) Flag-NPM S125A", "values": [{"measurement": "binding against the reference", "setting": "[2]", "result": "weaker"}]}, {"molecule": "B1", "values": [{"measurement": "stoichiometry N", "setting": "[3]", "result": 6}]}]}
